Experimental data as given in patent publication US20260209293A1 (Novo Nordisk, published 2026).
*1 amine or outer side, *2 acyl side, *3 side chain or, on linkers, in order; H or OH if unused. The star is where a group is joined. C20 diacid = O=C(O)CCCCCCCCCCCCCCCCCCC(=O)*; C18 diacid = O=C(O)CCCCCCCCCCCCCCCCC(=O)*; γGlu = O=C(O)[C@H](CCC(=O)[*:2])N[*:1]

T1: human amylin-3(a) receptor (human, UniProt P30988 25-474; O60896 24-148)
T1 sequence (looked up) 1: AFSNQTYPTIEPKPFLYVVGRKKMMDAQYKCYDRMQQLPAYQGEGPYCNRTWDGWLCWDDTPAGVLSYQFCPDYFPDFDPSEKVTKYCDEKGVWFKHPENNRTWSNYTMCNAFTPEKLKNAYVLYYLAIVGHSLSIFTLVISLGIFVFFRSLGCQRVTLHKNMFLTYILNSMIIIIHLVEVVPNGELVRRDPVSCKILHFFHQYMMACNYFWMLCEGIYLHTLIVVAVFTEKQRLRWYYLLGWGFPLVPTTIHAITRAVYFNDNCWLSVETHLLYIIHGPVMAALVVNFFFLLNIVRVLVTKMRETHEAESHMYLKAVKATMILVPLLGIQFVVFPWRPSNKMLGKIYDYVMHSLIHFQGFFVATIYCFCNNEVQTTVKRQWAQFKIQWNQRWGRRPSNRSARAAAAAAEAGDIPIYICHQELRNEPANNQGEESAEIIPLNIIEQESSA
T1 sequence (looked up) 2: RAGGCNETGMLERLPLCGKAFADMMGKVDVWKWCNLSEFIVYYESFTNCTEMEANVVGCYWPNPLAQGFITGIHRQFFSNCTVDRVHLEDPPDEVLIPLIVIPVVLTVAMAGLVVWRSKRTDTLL

T2: human calcitonin receptor (a) (human, UniProt P30988 25-474)
T2 sequence (looked up): T1 sequence (looked up) 1

B1: N^1-[(4S)-4-carboxy-4-(17-carboxyheptadecanoylamino)butanoyl]-[Ala1,Ser2,His3,Leu4,Ser5,Leu7,Gln8,Glu14,His17,Asp21,Pro25,Pro28,Pro29,Asp31, Pro37]-human amylin (peptide)
peptide: {C18 diacid-γGlu}-ASHLSTLQTQRLAEFLHHSSDNFGPILPPTDVGSNTP-NH2
SMILES: CC[C@H](C)[C@H](NC(=O)[C@@H]1CCCN1C(=O)CNC(=O)[C@H](Cc1ccccc1)NC(=O)[C@H](CC(N)=O)NC(=O)[C@H](CC(=O)O)NC(=O)[C@H](CO)NC(=O)[C@H](CO)NC(=O)[C@H](Cc1c[nH]cn1)NC(=O)[C@H](Cc1c[nH]cn1)NC(=O)[C@H](CC(C)C)NC(=O)[C@H](Cc1ccccc1)NC(=O)[C@H](CCC(=O)O)NC(=O)[C@H](C)NC(=O)[C@H](CC(C)C)NC(=O)[C@H](CCCNC(=N)N)NC(=O)[C@H](CCC(N)=O)NC(=O)[C@@H](NC(=O)[C@H](CCC(N)=O)NC(=O)[C@H](CC(C)C)NC(=O)[C@@H](NC(=O)[C@H](CO)NC(=O)[C@H](CC(C)C)NC(=O)[C@H](Cc1c[nH]cn1)NC(=O)[C@H](CO)NC(=O)[C@H](C)NC(=O)CC[C@H](NC(=O)CCCCCCCCCCCCCCCCC(=O)O)C(=O)O)[C@@H](C)O)[C@@H](C)O)C(=O)N[C@@H](CC(C)C)C(=O)N1CCC[C@H]1C(=O)N1CCC[C@H]1C(=O)N[C@H](C(=O)N[C@@H](CC(=O)O)C(=O)N[C@H](C(=O)NCC(=O)N[C@@H](CO)C(=O)N[C@@H](CC(N)=O)C(=O)N[C@H](C(=O)N1CCC[C@H]1C(N)=O)[C@@H](C)O)C(C)C)[C@@H](C)O
B2: N^1-[(4S)-4-carboxy-4-(17-carboxyheptadecanoylamino)butanoyl]-[Ala1,Ser2,His3,Leu4,Ser5,Ala7,Gln8,Glu14,His17,Asp21,Pro22,Pro27,Asp31,Pro34,Asp35]-human amylin (peptide)
peptide: {C18 diacid-γGlu}-ASHLSTAQTQRLAEFLHHSSDPFGAIPSSTDVGPDTY-NH2
SMILES: CC[C@H](C)[C@H](NC(=O)[C@H](C)NC(=O)CNC(=O)[C@H](Cc1ccccc1)NC(=O)[C@@H]1CCCN1C(=O)[C@H](CC(=O)O)NC(=O)[C@H](CO)NC(=O)[C@H](CO)NC(=O)[C@H](Cc1c[nH]cn1)NC(=O)[C@H](Cc1c[nH]cn1)NC(=O)[C@H](CC(C)C)NC(=O)[C@H](Cc1ccccc1)NC(=O)[C@H](CCC(=O)O)NC(=O)[C@H](C)NC(=O)[C@H](CC(C)C)NC(=O)[C@H](CCCNC(=N)N)NC(=O)[C@H](CCC(N)=O)NC(=O)[C@@H](NC(=O)[C@H](CCC(N)=O)NC(=O)[C@H](C)NC(=O)[C@@H](NC(=O)[C@H](CO)NC(=O)[C@H](CC(C)C)NC(=O)[C@H](Cc1c[nH]cn1)NC(=O)[C@H](CO)NC(=O)[C@H](C)NC(=O)CC[C@H](NC(=O)CCCCCCCCCCCCCCCCC(=O)O)C(=O)O)[C@@H](C)O)[C@@H](C)O)C(=O)N1CCC[C@H]1C(=O)N[C@@H](CO)C(=O)N[C@@H](CO)C(=O)N[C@H](C(=O)N[C@@H](CC(=O)O)C(=O)N[C@H](C(=O)NCC(=O)N1CCC[C@H]1C(=O)N[C@@H](CC(=O)O)C(=O)N[C@H](C(=O)N[C@@H](Cc1ccc(O)cc1)C(N)=O)[C@@H](C)O)C(C)C)[C@@H](C)O
B3: N^1-[(4S)-4-carboxy-4-(19-carboxynonadecanoylamino)butanoyl]-[Ala1,Ser2,His3,Leu4,Ser5,Ala7,Gln8,Ala10,Glu14,His17,Pro25,Pro28,Pro29,Asp31,Glu35,Pro37],des-(19- … (peptide)
peptide: {C20 diacid-γGlu}-ASHLSTAQTARLAEFLHHFGPILPPTDVGSETP-NH2
SMILES: CC[C@H](C)[C@H](NC(=O)[C@@H]1CCCN1C(=O)CNC(=O)[C@H](Cc1ccccc1)NC(=O)[C@H](Cc1c[nH]cn1)NC(=O)[C@H](Cc1c[nH]cn1)NC(=O)[C@H](CC(C)C)NC(=O)[C@H](Cc1ccccc1)NC(=O)[C@H](CCC(=O)O)NC(=O)[C@H](C)NC(=O)[C@H](CC(C)C)NC(=O)[C@H](CCCNC(=N)N)NC(=O)[C@H](C)NC(=O)[C@@H](NC(=O)[C@H](CCC(N)=O)NC(=O)[C@H](C)NC(=O)[C@@H](NC(=O)[C@H](CO)NC(=O)[C@H](CC(C)C)NC(=O)[C@H](Cc1c[nH]cn1)NC(=O)[C@H](CO)NC(=O)[C@H](C)NC(=O)CC[C@H](NC(=O)CCCCCCCCCCCCCCCCCCC(=O)O)C(=O)O)[C@@H](C)O)[C@@H](C)O)C(=O)N[C@@H](CC(C)C)C(=O)N1CCC[C@H]1C(=O)N1CCC[C@H]1C(=O)N[C@H](C(=O)N[C@@H](CC(=O)O)C(=O)N[C@H](C(=O)NCC(=O)N[C@@H](CO)C(=O)N[C@@H](CCC(=O)O)C(=O)N[C@H](C(=O)N1CCC[C@H]1C(N)=O)[C@@H](C)O)C(C)C)[C@@H](C)O
B4: N^1-[(4S)-4-carboxy-4-(17-carboxyheptadecanoylamino)butanoyl]-[Ala1,Ser2,His3,Leu4, Ser5, Leu7,Gln8,Glu14,His17,Pro25, Pro28,Pro29,Asp31,Glu35,Pro37], … (peptide)
peptide: {C18 diacid-γGlu}-ASHLSTLQTQRLAEFLHHFGPILPPTDVGSETP-NH2
SMILES: CC[C@H](C)[C@H](NC(=O)[C@@H]1CCCN1C(=O)CNC(=O)[C@H](Cc1ccccc1)NC(=O)[C@H](Cc1c[nH]cn1)NC(=O)[C@H](Cc1c[nH]cn1)NC(=O)[C@H](CC(C)C)NC(=O)[C@H](Cc1ccccc1)NC(=O)[C@H](CCC(=O)O)NC(=O)[C@H](C)NC(=O)[C@H](CC(C)C)NC(=O)[C@H](CCCNC(=N)N)NC(=O)[C@H](CCC(N)=O)NC(=O)[C@@H](NC(=O)[C@H](CCC(N)=O)NC(=O)[C@H](CC(C)C)NC(=O)[C@@H](NC(=O)[C@H](CO)NC(=O)[C@H](CC(C)C)NC(=O)[C@H](Cc1c[nH]cn1)NC(=O)[C@H](CO)NC(=O)[C@H](C)NC(=O)CC[C@H](NC(=O)CCCCCCCCCCCCCCCCC(=O)O)C(=O)O)[C@@H](C)O)[C@@H](C)O)C(=O)N[C@@H](CC(C)C)C(=O)N1CCC[C@H]1C(=O)N1CCC[C@H]1C(=O)N[C@H](C(=O)N[C@@H](CC(=O)O)C(=O)N[C@H](C(=O)NCC(=O)N[C@@H](CO)C(=O)N[C@@H](CCC(=O)O)C(=O)N[C@H](C(=O)N1CCC[C@H]1C(N)=O)[C@@H](C)O)C(C)C)[C@@H](C)O
B5: N^1-[(4S)-4-carboxy-4-(17-carboxyheptadecanoylamino)butanoyl]-[Ala1,Ser2,His3,Leu4,Ser5,Leu7,Gln8,Glu14,His17,Asp21,Pro22,Pro27,Asp31, Pro34,Asp35, … (peptide)
peptide: {C18 diacid-γGlu}-ASHLSTLQTQRLAEFLHHSSDPFGAIPSSTDVGPDTP-NH2
SMILES: CC[C@H](C)[C@H](NC(=O)[C@H](C)NC(=O)CNC(=O)[C@H](Cc1ccccc1)NC(=O)[C@@H]1CCCN1C(=O)[C@H](CC(=O)O)NC(=O)[C@H](CO)NC(=O)[C@H](CO)NC(=O)[C@H](Cc1c[nH]cn1)NC(=O)[C@H](Cc1c[nH]cn1)NC(=O)[C@H](CC(C)C)NC(=O)[C@H](Cc1ccccc1)NC(=O)[C@H](CCC(=O)O)NC(=O)[C@H](C)NC(=O)[C@H](CC(C)C)NC(=O)[C@H](CCCNC(=N)N)NC(=O)[C@H](CCC(N)=O)NC(=O)[C@@H](NC(=O)[C@H](CCC(N)=O)NC(=O)[C@H](CC(C)C)NC(=O)[C@@H](NC(=O)[C@H](CO)NC(=O)[C@H](CC(C)C)NC(=O)[C@H](Cc1c[nH]cn1)NC(=O)[C@H](CO)NC(=O)[C@H](C)NC(=O)CC[C@H](NC(=O)CCCCCCCCCCCCCCCCC(=O)O)C(=O)O)[C@@H](C)O)[C@@H](C)O)C(=O)N1CCC[C@H]1C(=O)N[C@@H](CO)C(=O)N[C@@H](CO)C(=O)N[C@H](C(=O)N[C@@H](CC(=O)O)C(=O)N[C@H](C(=O)NCC(=O)N1CCC[C@H]1C(=O)N[C@@H](CC(=O)O)C(=O)N[C@H](C(=O)N1CCC[C@H]1C(N)=O)[C@@H](C)O)C(C)C)[C@@H](C)O

The binders below were run against T1, human amylin-3(a) receptor (assay: cell-based or functional assay).

hAmyR3 potency, EC50 (pM); CRE-luciferase reporter in BHK cells	Binder
1.91 pM	B1
2.96 pM	B2
1.09 pM	B3
1.6 pM	B4
1.69 pM	B5

The binders below were run against T2, human calcitonin receptor (a) (assay: cell-based or functional assay).

hCalcR potency, EC50 (pM); CRE-luciferase reporter in BHK cells	Binder
2.06 pM	B1
3.22 pM	B2
1.49 pM	B3
2.26 pM	B4
1.74 pM	B5
